Laboratory results published in patent publication US20050222029A1 (MYRIAD GENETICS, published 2005).

Key:
Assay in all cases: yeast two-hybrid
VPS28 protein 9-211 = molecular target: T1, VPS28 protein 9-211 (human, UniProt Q9UK41 9-211)
T1 construct: prey (Gal4 AD-HA fusion); also called vacuolar protein sorting 28
T1 sequence (looked up): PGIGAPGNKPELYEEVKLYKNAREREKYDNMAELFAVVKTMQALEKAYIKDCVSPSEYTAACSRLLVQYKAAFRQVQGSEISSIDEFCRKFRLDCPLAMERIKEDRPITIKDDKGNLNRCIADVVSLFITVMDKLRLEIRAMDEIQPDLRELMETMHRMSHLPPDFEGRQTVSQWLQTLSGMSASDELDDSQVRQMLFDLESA

[1] = molecular target: T2, Cytoplasmic linker 2 (CYLN2) 607-947 (human, UniProt Q9UDT6 607-947)
T2 construct: prey (Gal4 AD-HA fusion)
T2 sequence (looked up): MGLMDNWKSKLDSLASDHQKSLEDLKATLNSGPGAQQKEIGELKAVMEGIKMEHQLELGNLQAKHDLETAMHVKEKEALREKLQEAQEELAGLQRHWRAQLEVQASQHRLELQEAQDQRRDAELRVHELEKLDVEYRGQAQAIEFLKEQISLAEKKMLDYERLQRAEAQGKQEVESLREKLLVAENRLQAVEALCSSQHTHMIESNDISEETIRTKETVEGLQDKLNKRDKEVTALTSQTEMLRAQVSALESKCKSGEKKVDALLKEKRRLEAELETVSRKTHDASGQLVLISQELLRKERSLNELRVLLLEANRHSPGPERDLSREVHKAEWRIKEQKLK

[2] = molecular target: T3, Golgi autoantigen (Golgin-84) 198-501 (human, UniProt Q8TBA6 198-501)
T3 construct: prey (Gal4 AD-HA fusion)
T3 sequence (looked up): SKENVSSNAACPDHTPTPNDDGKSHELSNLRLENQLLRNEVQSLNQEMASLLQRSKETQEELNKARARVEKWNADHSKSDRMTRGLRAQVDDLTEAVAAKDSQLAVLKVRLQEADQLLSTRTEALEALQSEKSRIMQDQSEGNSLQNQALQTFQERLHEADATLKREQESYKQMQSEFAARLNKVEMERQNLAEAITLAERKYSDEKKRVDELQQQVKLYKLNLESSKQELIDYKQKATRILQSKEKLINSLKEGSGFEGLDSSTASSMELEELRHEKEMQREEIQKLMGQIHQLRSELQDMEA

VPS28 protein 10-221 = molecular target: T4, VPS28 protein 10-221 (human, UniProt Q9UK41 10-221)
T4 construct: prey (Gal4 AD-HA fusion); also called vacuolar protein sorting 28
T4 sequence (looked up): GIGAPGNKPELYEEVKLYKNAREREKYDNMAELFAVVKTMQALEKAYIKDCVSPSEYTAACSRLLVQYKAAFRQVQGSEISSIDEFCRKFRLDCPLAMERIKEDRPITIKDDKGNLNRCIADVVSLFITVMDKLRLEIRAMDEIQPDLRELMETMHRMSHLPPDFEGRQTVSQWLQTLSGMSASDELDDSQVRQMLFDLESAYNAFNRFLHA

[3] = molecular target: T5, Protein kinase C and casein kinase substrate (PACSIN2) 174-367 (human, UniProt Q9UNF0 174-367)
T5 construct: prey (Gal4 AD-HA fusion)
T5 sequence (looked up): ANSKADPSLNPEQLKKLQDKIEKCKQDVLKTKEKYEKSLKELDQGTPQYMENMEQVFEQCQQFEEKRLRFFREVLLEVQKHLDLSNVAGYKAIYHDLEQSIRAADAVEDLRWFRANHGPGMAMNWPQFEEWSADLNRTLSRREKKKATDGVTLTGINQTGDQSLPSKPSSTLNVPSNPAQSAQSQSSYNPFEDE

PIBF1 392-758 = molecular target: T6, PIBF1 392-758 (human, UniProt Q8WXW3 392-757)
T6 construct: prey (Gal4 AD-HA fusion)
T6 sequence (looked up): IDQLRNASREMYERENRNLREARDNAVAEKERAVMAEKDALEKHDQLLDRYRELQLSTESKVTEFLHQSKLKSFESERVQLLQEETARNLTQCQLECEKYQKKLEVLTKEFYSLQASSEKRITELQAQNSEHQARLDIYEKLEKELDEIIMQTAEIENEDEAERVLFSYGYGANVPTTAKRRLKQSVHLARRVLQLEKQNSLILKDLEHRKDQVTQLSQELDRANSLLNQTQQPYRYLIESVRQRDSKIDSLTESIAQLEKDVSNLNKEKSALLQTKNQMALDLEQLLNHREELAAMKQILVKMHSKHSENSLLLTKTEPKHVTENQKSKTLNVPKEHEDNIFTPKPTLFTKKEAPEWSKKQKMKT

[4] = molecular target: T7, Chromosome-associated polypeptide HCAP (HCAP) 119-353 (human, UniProt Q9UQE7 119-353)
T7 construct: prey (Gal4 AD-HA fusion)

[5] = molecular target: T8, Charcot-Leyden crystal protein; periplakin (PPL) 1548-1756 (human, UniProt O60437 1548-1756)
T8 construct: prey (Gal4 AD-HA fusion)
T8 sequence (looked up): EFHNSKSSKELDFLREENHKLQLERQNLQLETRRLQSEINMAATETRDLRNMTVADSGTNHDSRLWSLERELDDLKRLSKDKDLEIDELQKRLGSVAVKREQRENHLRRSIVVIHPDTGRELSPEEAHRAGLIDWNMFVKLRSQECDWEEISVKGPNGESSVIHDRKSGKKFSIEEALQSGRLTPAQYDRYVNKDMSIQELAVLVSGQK

[6] = molecular target: T9, golgi autoantigen, golgin subfamily a, 5 (Golgin-84) 609-731 (human, UniProt Q8TBA6 609-731)
T9 construct: prey (Gal4 AD-HA fusion)
T9 sequence (looked up): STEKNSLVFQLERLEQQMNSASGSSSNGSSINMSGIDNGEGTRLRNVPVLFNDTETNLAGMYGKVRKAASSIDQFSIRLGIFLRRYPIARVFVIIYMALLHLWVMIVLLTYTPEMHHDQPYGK

T7 sequence (Q9UQE7 119-353 limits assumed): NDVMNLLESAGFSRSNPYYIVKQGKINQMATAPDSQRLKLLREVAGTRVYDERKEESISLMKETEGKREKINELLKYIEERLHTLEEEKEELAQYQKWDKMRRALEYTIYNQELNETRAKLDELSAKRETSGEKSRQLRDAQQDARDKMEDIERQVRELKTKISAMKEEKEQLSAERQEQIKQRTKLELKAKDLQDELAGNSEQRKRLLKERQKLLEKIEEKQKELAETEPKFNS

B1: Tumor Suppressor (TSG101) 231-391 (other, human, UniProt Q99816 231-390, looked up)
chain: ISAVSDKLRWRMKEEMDRAQAELNALKRTEEDLKKGHQKLEEMVTRLDQEVAEVDKNIELLKKKDEELSSALEKMENQSENNDIDEVIIPTAPLYKQILNLYAEENAIEDTIFYLGEALRRGVIDLDVFLKHVRLLSRKQFQLRALMQKARKTAGLSDLY
notes: bait (Gal4 DBD fusion)
- binding result (VPS28 protein 9-211): binds
- binding result [1]: binds
- binding result [2]: binds

B2: Tumor Suppressor (TSG101) 265-391 (other, human, UniProt Q99816 265-390, looked up)
chain: KGHQKLEEMVTRLDQEVAEVDKNIELLKKKDEELSSALEKMENQSENNDIDEVIIPTAPLYKQILNLYAEENAIEDTIFYLGEALRRGVIDLDVFLKHVRLLSRKQFQLRALMQKARKTAGLSDLY
notes: range 265-391; bait (Gal4 DBD fusion); also called TSG101 265-390
- binding result (VPS28 protein 10-221): binds
- binding result [3]: binds

B3: Tumor Suppressor (TSG101) 12-326 (other, human, UniProt Q99816 12-326, looked up)
chain: VSKYKYRDLTVRETVNVITLYKDLKPVLDSYVFNDGSSRELMNLTGTIPVPYRGNTYNIPICLWLLDTYPYNPPICFVKPTSSMTIKTGKHVDANGKIYLPYLHEWKHPQSDLLGLIQVMIVVFGDEPPVFSRPISASYPPYQATGPPNTSYMPGMPGGISPYPSGYPPNPSGYPGCPYPPGGPYPATTSSQYPSQPPVTTVGPSRDGTISEDTIRASLISAVSDKLRWRMKEEMDRAQAELNALKRTEEDLKKGHQKLEEMVTRLDQEVAEVDKNIELLKKKDEELSSALEKMENQSENNDIDEVIIPTAPLYK
notes: bait (Gal4 DBD fusion)
- binding result (PIBF1 392-758): binds

B4: Tumor Suppressor (TSG101) 264-391 (other, human, UniProt Q99816 264-390, looked up)
chain: KKGHQKLEEMVTRLDQEVAEVDKNIELLKKKDEELSSALEKMENQSENNDIDEVIIPTAPLYKQILNLYAEENAIEDTIFYLGEALRRGVIDLDVFLKHVRLLSRKQFQLRALMQKARKTAGLSDLY
notes: range 264-391; bait (Gal4 DBD fusion)
- binding result [4]: binds

B5: v-akt murine thymoma viral oncogene homolog 1 (AKT1) 1-109 (enzyme, human, UniProt P31749 1-109, looked up)
chain: MSDVAIVKEGWLHKRGEYIKTWRPRYFLLKNDGTFIGYKERPQDVDQREAPLNNFSVAQCQLMKTERPRPNTFIIRCLQWTTVIERTFHVETPEEREEWTTAIQTVADG
notes: bait (Gal4 DBD fusion)
- binding result [5]: binds

B6: v-akt murine thymoma viral oncogene homolog 1 (AKT1) 1-118 (enzyme, human, UniProt P31749 1-118, looked up)
chain: MSDVAIVKEGWLHKRGEYIKTWRPRYFLLKNDGTFIGYKERPQDVDQREAPLNNFSVAQCQLMKTERPRPNTFIIRCLQWTTVIERTFHVETPEEREEWTTAIQTVADGLKKQEEEEM
notes: bait (Gal4 DBD fusion)
- binding result [6]: binds
